# Reference: article PMC4167861, “Mycobacterium tuberculosis Rho Is an NTPase with Distinct Kinetic Properties and a Novel RNA-Binding Subdomain” (PLoS ONE, 2014)
# B1: Mycobacterium tuberculosis Rho (enzyme)
# chain: MTDTDLITAGESTDGKPSDAAATDPPDLNADEPAGSLATMVLPELRALANRAGVKGTSGMRKNELIAAIEEIRRQANGAPAVDRSAQEHDKGDRPPSSEAPATQGEQTPTEQIDSQSQQVRPERRSATREAGPSGSGERAGTAADDTDNRQGGQQDAKTEERGTDAGGDQGGDQQASGGQQARGDEDGEARQGRRGRRFRDRRRRGERSGDGAEAELREDDVVQPVAGILDVLDNYAFVRTSGYLPGPHDVYVSMNMVRKNGMRRGDAVTGAVRVPKEGEQPNQRQKFNPLVRLDSINGGSVEDAKKRPEFGKLTPLYPNQRLRLETSTERLTTRVIDLIMPIGKGQRALIVSPPKAGKTTILQDIANAITRNNPECHLMVVLVDERPEEVTDMQRSVKGEVIASTFDRPPSDHTSVAELAIERAKRLVEQGKDVVVLLDSITRLGRAYNNASPASGRILSGGVDSTALYPPKRFLGAARNIEEGGSLTIIATAMVETGSTGDTVIFEEFKGTGNAELKLDRKIAERRVFPAVDVNPSGTRKDELLLSPDEFAIVHKLRRVLSGLDSHQAIDLLMSQLRKTKNNYEFLVQVSKTTPGSMDSD
# notes: also called MtbRho; recombinant MtbRho
# Biological target: the molecule itself
# Assay: cross-linking; 2 ug MtbRho, 0.05% glutaraldehyde, 5 and 10 min at 37 C in T-buffer (KCl instead of K-glutamate), no RNA or ATP; 3.5-8% gradient SDS-PAGE; cross-linked RNAP as marker of ~400 kDa
protein,measurement,value
B1,stoichiometry N,6
